# Source: the nanobody polyreactivity screen of Harvey et al. (2022)
# Experiment: yeast display, Sf9 membrane polyspecificity reagent, FACS + sequencing; frameworks hold sequencing errors
# Procedure, shortened: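 A nanobody's polyreactivity label depends on the gate it was sorted from. Yeast display cells were stained with 10% biotinylated, detergent-solubilized Sf9 membrane reagent for 1 hour at 4 °C, enriched on streptavidin microbeads and sorted by FACS. The low and high (top ~1%) gates were set on anti-HA fluorescence for expression and streptavidin fluorescence for reagent binding.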
row,Sequence,polyreactivity (PSR sort gate)
1,QVQLVESGGGLVQAGGSLRLSCAASGLTFYAYVMGWYRPAPGNERELVAAISGGGSTYYADSVKGRFTISRDNAKNSVYLEMISLKPEDTAVYYCNAELSLWDLGYDYWVQGTQVTVSS,low polyreactivity
2,QVQLVESGGGLVQAGGSLRLSCAASGLTFYFYAMGWYRQAPGKERELVAAISYSGGSTYYADSVKGRFTISRDKAENTVYLQMNSLKPEDTAVYYCAARPTDGSGWPYRWTSDYWGHGTQVTVSS,low polyreactivity
3,QVQLVESGGGLVQAGGSLRLSCAASGLTFYGNAMGWYRQAPGKERELVADISLSGGRTFYADSVKGRFTISRDNAKNTVYLQMNSLKPEDTAVYYCAAVWRTGWYYEYYHWGQGTQVTVSS,low polyreactivity
4,QVQLVESGGGLVQAGGSLRLSCAASGLTFYGNARGWYRQAPGKERELVADISLSGGRTFYADSVKGRFTISRDNAKHTVYLQMNSLKPEDTAVYYCANTYTSGYHRRYDYWGQGTQVTVSS,low polyreactivity
5,QVQLVESGGGLVQAGGSLRLSCAASGLTFYIYAMGWYRQAHGKERELVASISSSGGITYYADSVKGRFTISRDNAKNTVYLQMNSLKPEDTAVYYCAATYSHRRGDYWGQGTQVTVSS,high polyreactivity
6,QVQLVESGGGLVQAGGSLRLSCAASGLTFYQNAMGWYRQAPGKEREFVASITRRGGRTYYADSVKGRFTISRDNAKNTVYLQMNSLKPEDTAVYYCAATFPQYQAIKEDYWGQGTQVTVSP,high polyreactivity
7,QVQLVESGGGLVQAGGSLRLSCAASGLTFYQYTMGWYRQAPGKERELVAAISRRGGSTYYADSVKGRFTISRDNAKNTVYLQMNSLKPEDTAVYYCAARALRYSRDFDYWGQGTQVTVSS,high polyreactivity
8,QVQLVESGGGLVQAGGSLRLSCAASGLTFYRNVMGWYRQAPGKERELVAAISGNGGSTYYADSVKGRFTISRDNAKNTVYLQMNSLKPEDTAVYYCATRAYDTGYGYWGQGTQVTVSS,high polyreactivity
9,QVQLVESGGGLVQAGGSLRLSCAASGLTFYRYAMGWYRQAPGKERELVAAITSGGGRTYYADSVKGRFTISRDNAKNTVYLQMNSLKPEDTAVYYCAADRGDYRWRGLTPSSYGYWGQGTQVTVSS,high polyreactivity
10,QVQLVESGGGLVQAGGSLRLSCAASGLTFYSYAMGWYRQAPGKERELVATIRWSGGSTYYADSVKGRFTISRDNAKNTVYLQMNSLKPEDTAVYYCATSSTHSRGDEYWGQGTQVTVSS,low polyreactivity
11,QVQLVESGGGLVQAGGSLRLSCAASGLTFYVNARGWYRQAPGKERELVATISGSGSTNYADSVKGRFTISRDNAKNTVYLQMNSLKPEDTAVYDCNAGWAQDPSNYWGQGTQVTVSS,high polyreactivity
12,QVQLVESGGGLVQAGGSLRLSCAASGLTFYYYAMGWYRQAPGKEREFVAAISYRGGRTYYADSVKGRFTISRDNAKNTVYLQMNSLKPEDTAVYYCAKLGKSRWWGVGPLEMDSWGQGTQVTVSS,high polyreactivity
13,QVQLVESGGGLVQAGGSLRLSCAASGLTFYYYAMGWYRQAPGKERELVARISSGTSTYYADSVKGRFTISRDNAKNTVYLQMNSLKPEDTAVYFCNARRKLGSTHGPWGGLVYWGQGTQVTVSS,low polyreactivity
14,QVQLVESGGGLVQAGGSLRLSCAASGLTFYYYVMGWYRQAPGKERELVAAISYSGGRTYYADSVKGRFTISRDNAKNTVSLQMNSLKPEDTAVYYCAAQSRYGGKFYYWGQGTQVTVSS,high polyreactivity
15,QVQLVESGGGLVQAGGSLRLSCAASGLTIAAYAMGWYRQAPGKERELVAAITQRGGSTYYADSVKGRFTISRDNAKNTVYLQMNSLKPEDTAVYYCAADSTWWWWKLYSPYGYDYWGQGTQVTVSS,low polyreactivity
16,QVQLVESGGGLVQAGGSLRLSCAASGLTIYHYAMGWYRQAPGKERELVAAISWNGGSTYYADSVKGRFTFSRDNAKNTVYLQMNSLKPEDTAVYYCAVVFNPHRYTGVLAGYDYWGQGTQVTVSS,high polyreactivity
17,QVQLVESGGGLVQAGGSLRLSCAASGLTIYYYAMGWYIQAPGKEREFVAAISWHGGSTYYADSVKGRFTISRDNAKNTVYLQMNSLKPEDTAVYYCAADIYLRGFHYDYWGLGTQVTVSS,low polyreactivity
18,QVQLVESGGGLVQAGGSLRLSCAASGLTLETNAMGWYRQAPGKERELVAGITYSGGTTYYADSVKGRFTISRDNAKNSVYLQINSLKPDDTAVYDCNAGPLRSGRYTYYYWGQGTQVTVSS,low polyreactivity
19,QVQLVESGGGLVQAGGSLRLSCAASGLTLGRYAMGWYRQAPGNERELVAVITGGGSTNYADSVKGRFTISRDNAKNTVYIQLNSLKPADTAVYYCAVRGGIFQTLSTWYRYYYCGQGTQVTVSS,high polyreactivity
20,QVQLVESGGGLVQAGGSLRLSCAASGLTLGSYAMGWYRQAPGKERELVAAISRRSGRTYYADSVKGRFTISRDNAKNTVYLKMNSLKPEDTAVDYCNRGYTAQVYTEFDYWGQGTQVTVSS,low polyreactivity

row,Sequence,polyreactivity (PSR sort gate)
1,QVQLVESGGGLVQAGGSLRLSCAASGLTLHGNAMGWYSQAPGKERGLVATITSSGGSTFYADSVKGRFTISRDNAKNTVSLQMNSLKPEDTAVFYCNADAPYSDDYYVRFDYWGQGTQVTVSS,low polyreactivity
2,QVQLVESGGGLVQAGGSLRLSCAASGLTLKTYAMGWYRQAPGKERELVAGISASGGSTYYADSVKGRFTISRDIAKNTVYLQLNSLKPVDTAVYYCAKVTRAYRAYYYWGQGTQVTVSS,high polyreactivity
3,QVQLVESGGGLVQAGGSLRLSCAASGLTLNYYAMGWYRQAPGKERELVASISRSGGRTYYADSVKGRFTISRVNAKNTVYLQMNSLKPDDSAVYYCNADWYRGRYDYWGQGTQVTVSS,high polyreactivity
4,QVQLVESGGGLVQAGGSLRLSCAASGLTLPSYVMGCYRQAPGKERELVAAISNSGGSTYYADSVKGRFTISRDTAKNTVYLQMNSLKPEDTAVYYCAAVYGYLLYFLLLPFTRDDYWGQGTQVTVSS,high polyreactivity
5,QVQLVESGGGLVQAGGSLRLSCAASGLTLRNYAKGWYREAPGKDRELVAAITTGGGRTFYADSVKGRFTISRDKAKNTVYLETNSLNPEDTAVYYCAAERAILSSDKQSLWRFDYWGQGTQVTVSS,low polyreactivity
6,QVQLVESGGGLVQAGGSLRLSCAASGLTLRNYAMGWYRQAPGKERELVAAITTGGGRTYYADSVKGRFTISRDYAKNTVFLQMKSLKPEDTAVYYCAAEGAILSSDKQSLWRFDYWGQGTQVTVSS,low polyreactivity
7,QVQLVESGGGLVQAGGSLRLSCAASGLTLRTNSMRLYIQAPGKERELVAAISRSGVRTYYAHSVKGRFTISRDNAKNTVYLQMNSLKPEDTAVYYCNAEFSPYPYDYWGQGTQVTVSS,high polyreactivity
8,QVQLVESGGGLVQAGGSLRLSCAASGLTLSGNAMGWYRQAPGKETELVAAITGRGGSTTYADSVKGRFTISRDNAKTTVYLQMNSLKPEDTAVYYCAADHAWYSLFDYWGQGTQVTVSS,low polyreactivity
9,QVQLVESGGGLVQAGGSLRLSCAASGLTLSYYAMGWYRPAPGKEMELVAAISSGGSTYYADSVKGRFTISRDNAKNTVYLQMNSLKPEDTAVYYCAAQWWRLYWEYYYWGQGTQVTVSS,low polyreactivity
10,QVQLVESGGGLVQAGGSLRLSCAASGLTLTYYAMGWYRQAPGKERELVAAISSSGGSTYYADSVKGRFTISRDNAKNTVYLQMNSLKPEDTAVYYCAARDWASHTPFDYWGQGTQVTVSS,high polyreactivity
11,QVQLVESGGGLVQAGGSLRLSCAASGLTMTWNSMGWYRQAPGKERELVAAIRWRGSSTYYADSVKGRFTISRDNAKNTVYLQLNSLKPEDTAVYYCAAEPRYYHVGYEYDNWGQGTQVTVSS,high polyreactivity
12,QVQLVESGGGLVQAGGSLRLSCAASGLTSIHYMGWYRQAPGKERELVATITSSTGSTYYADSVKGRFTISRDNAKNTVYLQMNSLKPEDTAVYYCAAESFGADGPYQPSYDYWGQGTQVTVSS,low polyreactivity
13,QVQLVESGGGLVQAGGSLRLSCAASGLTSVYNAMGWYRQAPGKERELVAAISWRGGRTYYADSVKGRFTISRDNAKNTVYLQMNSLKPEDTAVYYCARGYYTRPYYNPVFGYNYWGQGTQVTVSS,high polyreactivity
14,QVQLVESGGGLVQAGGSLRLSCAASGLTVVIYAMGWYRKAPGKERELVARITCSGGSTYYADSVKGRFTISRDNAKNTVYLQMISLQPEVTAVYYCAARRFYYYNAVYDYWGQGTQVTVSS,low polyreactivity
15,QVQLVESGGGLVQAGGSLRLSCAASGLTYWAYAMGWYRQAPGKERDFVAAISWSGDSTYYADSVKGRYTISRDNAKNTVYLQMNSLKPEDTAVYYCAAEWYYVYIAPYDYLGQGTQVTVSS,low polyreactivity
16,QVQLVESGGGLVQAGGSLRLSCAASGMIFTLYAMGWNRQAPGKERELVAGIDASGGSTSYADSVKGRFTISRDNAKNTVYLQMNSLKPEDTAVYYCAARILPYGYDYWGQGTQVTVSS,low polyreactivity
17,QVQLVESGGGLVQAGGSLRLSCAASGMILGVNVMGWYRQAPGKERELVAAISGGGRTYYADSVKGRFTISRDNAKNTVYLLMNSLKPEDTAVYYCAARVYSLGYGGDYWGQGTHVTVSS,high polyreactivity
18,QVQLVESGGGLVQAGGSLRLSCAASGNAMGWYRPAPGKERELVAAITRRGGSTYYADSVKGRFTISRDNAKNTVYLQMNSLKPEDSAVYYCAADNPSYNLWYGYWGLGTQVTVSS,low polyreactivity
19,QVQLVESGGGLVQAGGSLRLSCAASGNIFADYAMGWYRQAPGKERELVAAISRGGITSYADSVKGRFTISRDNAKNTVYLQMNSLKPEDTAVYYCATDRYDVYDSLGFGYWGQGTQVTVSS,low polyreactivity
20,QVQLVESGGGLVQAGGSLRLSCAASGNIFANYAMGWYRQAPGKERELVAAIRWSASRPYYADSVKGRFTISRDNAKNTVYLQMNSLKPEDTAVYYCAATIYTFWDYYYDYWGQGTQVTVSS,high polyreactivity
